According to patent US20230338465A1 (VITRUVIAE, published 2023):
Values joined by “and” are separate entries in the source; they are usually repeats but may differ in a detail not shown here. Equal entries are not always repeated. Where two headings read alike, the source gives them in different places.

Tests used:
Assay in all cases: ELISA, 2.5 mM CaCl2
Chikungunya Virus E1 = Chikungunya Virus E1 (Chikungunya virus)
[1] = target: T1, Zika Virus Envelope Protein (Zika virus)
T1 chain: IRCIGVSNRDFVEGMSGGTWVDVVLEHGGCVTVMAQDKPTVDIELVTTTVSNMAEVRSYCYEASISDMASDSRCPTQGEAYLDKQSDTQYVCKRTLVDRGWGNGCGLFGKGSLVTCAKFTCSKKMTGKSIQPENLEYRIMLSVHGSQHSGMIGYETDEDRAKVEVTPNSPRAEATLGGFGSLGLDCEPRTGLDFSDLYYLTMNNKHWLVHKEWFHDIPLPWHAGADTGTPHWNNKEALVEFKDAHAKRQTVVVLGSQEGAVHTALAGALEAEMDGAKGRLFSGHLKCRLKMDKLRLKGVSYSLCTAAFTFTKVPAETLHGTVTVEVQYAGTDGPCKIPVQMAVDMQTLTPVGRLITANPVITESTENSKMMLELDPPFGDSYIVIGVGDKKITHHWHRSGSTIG

[2] = target: T1, Zika Virus Envelope Protein

B1: VP025-CT (co-transfected product of genes TM-G4-A-DC and CT-G4-B-DC, heterodimer mixture) (Fc fusion)
chain 1: SVKVGGEAGPSVTLPCHYSGAVTSMCWNRGSCSLFTCQNGIVWTNGTHVTYRKDTRYKLLGDLSRRDVSLTIENTAVSDSGVYCCRVEHRGWFNDMKITVSLEIVGGGGSGGGGSGGGGSKYGPPCPPCPAPEAAGGPSVFLFPPKPKDTLMISRTPEVTCVVVDVSQEDPEVQFNWYVDGVEVHNAKTKPREEQFNSTYRVVSVLTVLHQDWLNGKEYKCAVSNKGLPSSIEKTISKCKGQPREPQVYTLPPSQEEMTKNQVSLTCLVKGFYPSDIAVEWESNGQPENNYKTTPPVLDSDGSFFLYSRLTVDKSRWQEGNVFSCSVMHEALHNHYTQKSLSLSLGK
chain 2: ERLCHPCPWEWTFFQGNCYFMSNSQRNWHDSITACKEVGAQLVVIKSAEEQNFLQLQSSRSNRFTWMGLSDLNQEGTWQWVDGSPLLPSFKQYWNRGEPNNVGEEDCAEFSGNGWNDDKCNLAKFWICKKSAASCSGGGGSGGGGSGGGGSKYGPPCPPCPAPEAAGGPSVFLFPPKPKDTLMISRTPEVTCVVVDVSQEDPEVQFNWYVDGVEVHNAKTKPREEQFNSTYRVVSVLTVLHQDWLNGKEYKCAVSNKGLPSSIEKTISKCKGQPREPQVYTLPPSQEEMTKNQVSLTCLVKGFYPSDIAVEWESNGQPENNYKTTPPVLDSDGSFLLYSKLTVDKSRWQEGNVFSCSVMHEALHNHYTQKSLSLSLGK
notes: also called VP025-CT (heterodimer mixture)
EC50 (Chikungunya Virus E1): 10.2 µg/mL and 122 nM

B2: VP019-F2 (multimer fraction F2 of VP019, V-TIM1-1 with V-IGG4-ADC-A-Fc) (Fc fusion)
chain: SVKVGGEAGPSVTLPCHYSGAVTSMCWNRGSCSLFTCQNGIVWTNGTHVTYRKDTRYKLLGDLSRRDVSLTIENTAVSDSGVYCCRVEHRGWFNDMKITVSLEIVGGGGSGGGGSGGGGSKYGPPCPPCPAPEAAGGPSVFLFPPKPKDTLMISRTPEVTCVVVDVSQEDPEVQFNWYVDGVEVHNAKTKPREEQFNSTYRVVSVLTVLHQDWLNGKEYKCAVSNKGLPSSIEKTISKCKGQPREPQVYTLPPSQEEMTKNQVSLTCLVKGFYPSDIAVEWESNGQPENNYKTTPPVLDSDGSFFLYSRLTVDKSRWQEGNVFSCSVMHEALHNHYTQKSLSLSLGK
notes: also called TM-G4-A-DC; VIT-307
EC50 [1]: 1 µg/mL | EC50 [2]: 12.2 nM

B3: VP020 (V-CTLD-1 with V-IGG4-ADC-B-Fc) (Fc fusion)
chain: ERLCHPCPWEWTFFQGNCYFMSNSQRNWHDSITACKEVGAQLVVIKSAEEQNFLQLQSSRSNRFTWMGLSDLNQEGTWQWVDGSPLLPSFKQYWNRGEPNNVGEEDCAEFSGNGWNDDKCNLAKFWICKKSAASCSGGGGSGGGGSGGGGSKYGPPCPPCPAPEAAGGPSVFLFPPKPKDTLMISRTPEVTCVVVDVSQEDPEVQFNWYVDGVEVHNAKTKPREEQFNSTYRVVSVLTVLHQDWLNGKEYKCAVSNKGLPSSIEKTISKCKGQPREPQVYTLPPSQEEMTKNQVSLTCLVKGFYPSDIAVEWESNGQPENNYKTTPPVLDSDGSFLLYSKLTVDKSRWQEGNVFSCSVMHEALHNHYTQKSLSLSLGK
notes: also called CT-G4-B-DC; VIT-308
EC50 [1]: 7.4 µg/mL | EC50 [2]: 85.1 nM
